Data reported in PMC4488664, “An Inactive Geminin Mutant That Binds Cdt1” (Genes, 2015).

T1: mouse Cdt1^172-368 (mouse, UniProt Q8R4E9 172-368)
T1 chain: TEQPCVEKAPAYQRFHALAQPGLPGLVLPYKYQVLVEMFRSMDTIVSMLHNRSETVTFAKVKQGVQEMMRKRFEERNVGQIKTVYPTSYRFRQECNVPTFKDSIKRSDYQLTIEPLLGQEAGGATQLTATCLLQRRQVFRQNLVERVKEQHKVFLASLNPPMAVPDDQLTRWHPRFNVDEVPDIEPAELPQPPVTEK

T2: mouse Cdt1^172-368 (mouse, UniProt Q8R4E9 172-368)
T2 construct: Cdt1, mouse, residues 172-368; Inserted between the NdeI and KpnI sites of pET Duet 1; source: E. coli BL21, purified, dialyzed
T2 sequence (looked up): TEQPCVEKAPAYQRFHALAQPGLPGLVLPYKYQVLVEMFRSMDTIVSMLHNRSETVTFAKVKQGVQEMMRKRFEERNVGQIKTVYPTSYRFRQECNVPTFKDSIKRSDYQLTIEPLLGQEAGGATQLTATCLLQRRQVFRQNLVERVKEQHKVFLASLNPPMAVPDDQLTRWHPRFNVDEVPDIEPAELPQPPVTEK


Legend:
[1] = molecular target: mouse Cdt1^172-368 (mouse) (UniProt Q8R4E9); experiment: ITC; MicroCal ITC200, 18 °C; 20 mM Na-HEPES pH 7.5, 300 mM NaCl, 7 mM β-mercaptoethanol; 17 injections of Geminin (WT 0.432 mM, AWA 0.297 mM) into 200 µL Cdt1 (0.044 mM)
mouse Cdt1^172-368 [2] = molecular target: T1, mouse Cdt1^172-368; experiment: ITC
mouse Cdt1^172-368 [3] = molecular target: T2, mouse Cdt1^172-368; experiment: ITC; MicroCal ITC200, 18 °C; 20 mM Na-HEPES pH 7.5, 300 mM NaCl, 7 mM β-mercaptoethanol; 17 injections of Geminin (WT 0.432 mM, AWA 0.297 mM) into 200 µL Cdt1 (0.044 mM); settings: both partners purified

| Binder | Kd [1] [nM] | Ka (mouse Cdt1^172-368 [2]) [M⁻¹] | Kd (mouse Cdt1^172-368 [3]) [nM] |
| --- | --- | --- | --- |
| mouse Geminin^79-157 AWA (domain or fragment) TQEAFDLISKENPSSQAWAEVAEQRRKALYEALKENEKLHKEIEQKDSEIARLRKENKDLAEVAEHVQYMAEVIERLSN | 250 | 4e+06 |  |
| mouse Geminin^79-157 wild type (domain or fragment, UniProt O88513 79-157, looked up, Geminin, mouse, residues 79-157 (methods); Limits differ between methods (79-157) and legend (72-157); also called Geminin^WT; source: E. coli BL21, purified over nickel-NTA agarose, dialyzed) TQEAFDLISKENPSSQYWKEVAEQRRKALYEALKENEKLHKEIEQKDSEIARLRKENKDLAEVAEHVQYMAEVIERLSN |  | 3.5e+06 | 290 |
